Source: patent US20240067729A1 (published 2024)
Numbering of substitutions follows the chain as printed.

B1: PAL771.2 (antibody, V domains shown)
VH: EVQLQESGAELVKPGASVKLSCTASGFNIKDTYMHWVKQRPEQGLEWIGRIDPANGNTKYDPKFPGKATITADTSSNTAYLQLSSLTSEDAAVYYCARPFNYRFYDVYYFDYWGQGTTLTVST
VL: QIVLTQSPAIMSASPGEKVTMTCSASSSVSYMYWYQQKPGSSPRLLIYDTSNLASGVPLRFSGSGSGTSYSLTLSRMEAEDAATYYCQQWSTYPLTFGAGTKLELK
B2: 767-hIgG1 (chimeric PAL767) (antibody, V domains shown)
VH: EVQLQESGPSLVKPSQTLSLTCSVTGDSITSGYWNWIRKFPGNKLEYMGYISYTGSTYYNPSLKRRISITRDTSKNQYYLQLNSVTTEDTATYYCASQGGWLQAMDYWGQGTSVTVSS
VL: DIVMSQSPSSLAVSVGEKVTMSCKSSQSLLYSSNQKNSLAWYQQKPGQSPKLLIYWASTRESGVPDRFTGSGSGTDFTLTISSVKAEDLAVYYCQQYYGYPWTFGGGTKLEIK
B3: 788-hIgG1 (chimeric PAL788) (antibody, V domains shown)
VH: QVQLQQPGAELVKPGASVKLSCKASGYTFTSNWMNWVKQRPGRGLEWIGRIHPSDSETHYHQKFKSKATLTVDKSSSTAYIQLSSLTSEDSAVYYCAHSSGDYGRDYWGQGTTLTVSS
VL: NIVLTQSPASLAVSLGQRATISCRASESVDSYGNSFMHWYQQKPGQPPKLLIYLASNLQSGVPARFSGSGSRTDFTLTIDPVEADDAATYYCQQNNEDPWTFGGGTKLEIK
B4: 769-hIgG1 (chimeric PAL769) (antibody, V domains shown)
VH: EVQLQESGAELVKPGASVTLSCTASGFNIKDTYMHWVKQRPEQGLEWIGRIDPANDNTKYDPKFQDKATITADTSSDTAYLRLSSLTSEDTAVYYCAREGYGGSYGEGYWGQGTTLTVSS
VL: SIVMTQTPKFLLVSAGDRVTITCKASQSVSNDVIWYQQKPGQSPKLLIYYASIRFTGVPDRFAGSGYGTDFTFTINTVQAEDLAVYFCQQDYNSPWTFGGGTKLEIK
B5: 752-hIgG1 (chimeric PAL752) (antibody, V domains shown)
VH: EVQLQESGAELARPGASVKLSCKASGHAFTSDSINWVKQRIGQGLEWIGEIYPRSGNPYYNEKFKGKATLTADKSSSTAYMELRSLTSEDSAVYFCATDYYGRYFDVWGTGTTVTVSS
VL: DIQMTQSSFSFSVSLGDRVTIICKASEDIYNRLAWYQQKPGNTPRLLISGATSLETGVPSRFSGSGSGKDYTLSITSLQTEDVATYYCQQYWSTPWTFGGGTKLEIK
B6: 785-hIgG1 (chimeric PAL785) (antibody, V domains shown)
VH: EVQLQESGPELVKPGTSVKMSCKASGYTFTSYVMHWVKQRPGQGLEWIGYINPYNDGSKYNEKFKGKATLTSDTSSSTAYMELSSLTSEDSAVYYCAKQTLDFWGQGTSVTVST
VL: DIVLTQSPASLAVSLGQRATISCRASESVEFYGTTLMQWYQQKPGQPPKLLIYAASNVESGVPARFSGSGSGTDFSLNIHPVEEGDIGMYFCQQSRKVPYTFGGGTKLEIK
B7: h769-tm2 (humanized 769-hIgG1 variant) (antibody, V domains shown)
VH: EVQLVQSGAEVKKPGATVKISCKVSGFNIKDTYMHWVQQAPGKGLEWMGLIDPANDNTIYAEKFQGRVTITADTSTDTAYMELSSLRSEDTAVYYCAREGYGGSYGEGYWGQGTLVTVSS
VL: EIVMTQSPPTLSLSPGERVTLSCRASQSVSNDLSWYQQKPGQAPRLLIYYASIRFTGIPARFSGSGYGTDFTLTISSLQPEDFAVYYCQQDYNSPWTFGQGTKVEIK
B8: h769-tm3 (humanized 769-hIgG1 variant) (antibody, V domains shown)
VH: B7 VH
VL: B7 VL with Y67S, Y87F
B9: h769-IF3 (humanized 769-hIgG1 variant) (antibody, V domains shown)
VH: B7 VH
VL: B7 VL with Y67S

These binders were tested against T1, human PD-L1 (hPD-L1) coated on ELISA wells, Example 7 (human, UniProt Q9NZQ7 19-238) (assay: huPD1-Fc blocking ELISA).
T1 sequence (Q9NZQ7 19-238): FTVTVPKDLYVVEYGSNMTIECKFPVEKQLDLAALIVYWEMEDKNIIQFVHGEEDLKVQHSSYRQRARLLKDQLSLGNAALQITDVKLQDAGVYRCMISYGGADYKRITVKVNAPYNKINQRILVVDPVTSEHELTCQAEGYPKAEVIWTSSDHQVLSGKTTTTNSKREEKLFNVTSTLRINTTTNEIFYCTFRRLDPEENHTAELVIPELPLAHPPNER

Binder | IC50 [nM]
B1 | 0.6

The binders below were run against T1, human PD-L1 (hPD-L1) coated on ELISA … (assay: Blocking ELISA).

Binder | IC50 [nM]
B2 | 2.01
B3 | 2.93
B4 | 1.58
B5 | 4.64
B6 | 1.94

These binders were tested against T1, human PD-L1 (hPD-L1) coated on ELISA … (assay: blocking ELISA (hPD1-Fc binding)).

Binder | IC50 [nM]
B4 | 1.57
B7 | 1.44
B8 | 1.29
B9 | 1.47
